From PMC11711466, “Reconstitution of human DNA licensing and the structural and functional analysis of key intermediates” (Nature Communications, 2024)

B1: human ORC2 (natural protein, UniProt Q13416 1-577, looked up)
chain: MSKPELKEDKMLEVHFVGDDDVLNHILDREGGAKLKKERAQLLVNPKKIIKKPEYDLEEDDQEVLKDQNYVEIMGRDVQESLKNGSATGGGNKVYSFQNRKHSEKMAKLASELAKTPQKSVSFSLKNDPEITINVPQSSKGHSASDKVQPKNNDKSEFLSTAPRSLRKRLIVPRSHSDSESEYSASNSEDDEGVAQEHEEDTNAVIFSQKIQAQNRVVSAPVGKETPSKRMKRDKTSDLVEEYFEAHSSSKVLTSDRTLQKLKRAKLDQQTLRNLLSKVSPSFSAELKQLNQQYEKLFHKWMLQLHLGFNIVLYGLGSKRDLLERFRTTMLQDSIHVVINGFFPGISVKSVLNSITEEVLDHMGTFRSILDQLDWIVNKFKEDSSLELFLLIHNLDSQMLRGEKSQQIIGQLSSLHNIYLIASIDHLNAPLMWDHAKQSLFNWLWYETTTYSPYTEETSYENSLLVKQSGSLPLSSLTHVLRSLTPNARGIFRLLIKYQLDNQDNPSYIGLSFQDFYQQCREAFLVNSDLTLRAQLTEFRDHKLIRTKKGTDGVEYLLIPVDNGTLTDFLEKEEEEA
notes: human origin recognition complex subunit 2 (hORC2); Subunit of m1; also called hORC2; source: S. cerevisiae YC658, co-overexpressed with the other hORC1-5 subunits; in lysate (co-purification) and purified as hORC1-5
B2: human ORC3 (natural protein, UniProt Q9UBD5 1-711, looked up)
chain: MATSSMSKGCFVFKPNSKKRKISLPIEDYFNKGKNEPEDSKLRFETYQLIWQQMKSENERLQEELNKNLFDNLIEFLQKSHSGFQKNSRDLGGQIKLREIPTAALVLGVNVTDHDLTFGSLTEALQNNVTPYVVSLQAKDCPDMKHFLQKLISQLMDCCVDIKSKEEESVHVTQRKTHYSMDSLSSWYMTVTQKTDPKMLSKKRTTSSQWQSPPVVVILKDMESFATKVLQDFIIISSQHLHEFPLILIFGIATSPIIIHRLLPHAVSSLLCIELFQSLSCKEHLTTVLDKLLLTTQFPFKINEKVLQVLTNIFLYHDFSVQNFIKGLQLSLLEHFYSQPLSVLCCNLPEAKRRINFLSNNQCENIRRLPSFRRYVEKQASEKQVALLTNERYLKEETQLLLENLHVYHMNYFLVLRCLHKFTSSLPKYPLGRQIRELYCTCLEKNIWDSEEYASVLQLLRMLAKDELMTILEKCFKVFKSYCENHLGSTAKRIEEFLAQFQSLDETKEEEDASGSQPKGLQKTDLYHLQKSLLEMKELRRSKKQTKFEVLRENVVNFIDCLVREYLLPPETQPLHEVVYFSAAHALREHLNAAPRIALHTALNNPYYYLKNEALKSEEGCIPNIAPDICIAYKLHLECSRLINLVDWSEAFATVVTAAEKMDANSATSEEMNEIIHARFIRAVSELELLGFIKPTKQKTDHVARLTWGGC
notes: human origin recognition complex subunit 3 (hORC3); Subunit of m1; also called hORC3; source: S. cerevisiae YC658, co-overexpressed with the other hORC1-5 subunits; in lysate (co-purification) and purified as hORC1-5
B3: human ORC4 (natural protein, UniProt O43929 1-436, looked up)
chain: MSSRKSKSNSLIHTECLSQVQRILRERFCRQSPHSNLFGVQVQYKHLSELLKRTALHGESNSVLIIGPRGSGKTMLINHALKELMEIEEVSENVLQVHLNGLLQINDKIALKEITRQLNLENVVGDKVFGSFAENLSFLLEALKKGDRTSSCPVIFILDEFDLFAHHKNQTLLYNLFDISQSAQTPIAVIGLTCRLDILELLEKRVKSRFSHRQIHLMNSFGFPQYVKIFKEQLSLPAEFPDKVFAEKWNENVQYLSEDRSVQEVLQKHFNISKNLRSLHMLLMLALNRVTASHPFMTAVDLMEASQLCSMDSKANIVHGLSVLEICLIIAMKHLNDIYEEEPFNFQMVYNEFQKFVQRKAHSVYNFEKPVVMKAFEHLQQLELIKPMERTSGNSQREYQLMKLLLDNTQIMNALQKYPNCPTDVRQWATSSLSWL
notes: human origin recognition complex subunit 4 (hORC4); Subunit of m1; also called hORC4; source: S. cerevisiae YC658, co-overexpressed with the other hORC1-5 subunits; in lysate (co-purification) and purified as hORC1-5
B4: human ORC5 (natural protein, UniProt O43913 1-435, looked up)
chain: MPHLENVVLCRESQVSILQSLFGERHHFSFPSIFIYGHTASGKTYVTQTLLKTLELPHVFVNCVECFTLRLLLEQILNKLNHLSSSEDGCSTEITCETFNDFVRLFKQVTTAENLKDQTVYIVLDKAEYLRDMEANLLPGFLRLQELADRNVTVLFLSEIVWEKFRPNTGCFEPFVLYFPDYSIGNLQKILSHDHPPEYSADFYAAYINILLGVFYTVCRDLKELRHLAVLNFPKYCEPVVKGEASERDTRKLWRNIEPHLKKAMQTVYLREISSSQWEKLQKDDTDPGQLKGLSAHTHVELPYYSKFILIAAYLASYNPARTDKRFFLKHHGKIKKTNFLKKHEKTSNHLLGPKPFPLDRLLAILYSIVDSRVAPTANIFSQITSLVTLQLLTLVGHDDQLDGPKYKCTVSLDFIRAIARTVNFDIIKYLYDFL
notes: human origin recognition complex subunit 5 (hORC5); Subunit of m1; also called hORC5; source: S. cerevisiae YC658, co-overexpressed with the other hORC1-5 subunits; in lysate (co-purification) and purified as hORC1-5

How the values were obtained:
human MCM3 = target: T1, human MCM3 (human, UniProt P25205 1-808); assay: cryo-EM structure; hOCCM from a low-salt washed pre-RC reaction with ATPγS, eluted from the DNA beads with DNaseI; 6.09 Å; settings: both partners purified
T1 construct: Subunit of m6; also called hMCM3; source: HEK293-F, co-expressed hMCM2-7; in lysate (co-purification) and purified as hMCM2-7 (Ni-NTA, StrepTrapXT)
T1 sequence (looked up): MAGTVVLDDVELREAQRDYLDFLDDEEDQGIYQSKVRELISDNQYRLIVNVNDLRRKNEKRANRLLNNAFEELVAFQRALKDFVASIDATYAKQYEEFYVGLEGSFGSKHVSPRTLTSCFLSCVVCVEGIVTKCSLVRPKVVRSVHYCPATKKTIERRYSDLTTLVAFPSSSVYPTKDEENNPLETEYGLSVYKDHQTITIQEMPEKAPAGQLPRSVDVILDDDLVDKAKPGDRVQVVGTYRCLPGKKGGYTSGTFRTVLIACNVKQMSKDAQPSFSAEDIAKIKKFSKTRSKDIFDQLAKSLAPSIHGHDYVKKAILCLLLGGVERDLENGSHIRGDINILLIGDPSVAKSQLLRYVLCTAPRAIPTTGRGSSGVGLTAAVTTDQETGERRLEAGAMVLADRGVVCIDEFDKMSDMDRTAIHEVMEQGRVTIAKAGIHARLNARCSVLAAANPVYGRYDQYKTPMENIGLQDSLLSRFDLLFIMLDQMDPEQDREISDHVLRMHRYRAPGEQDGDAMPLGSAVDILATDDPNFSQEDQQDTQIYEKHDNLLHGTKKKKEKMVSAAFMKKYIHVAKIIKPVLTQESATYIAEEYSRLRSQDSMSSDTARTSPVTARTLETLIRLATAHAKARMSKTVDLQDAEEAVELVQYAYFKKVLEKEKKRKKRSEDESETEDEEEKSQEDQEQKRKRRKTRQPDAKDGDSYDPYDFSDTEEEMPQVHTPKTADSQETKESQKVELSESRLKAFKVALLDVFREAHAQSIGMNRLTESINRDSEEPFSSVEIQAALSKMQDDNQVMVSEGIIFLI

human ORC1 = target: T2, human ORC1 (human, UniProt Q13415 1-861); assay: affinity co-purification; hORC1-5 co-overexpressed in G1-arrested budding yeast; StrepXT column on the N-terminal Strep tag of hORC1, then heparin column and glycerol gradient; settings: partners not purified
T2 construct: human origin recognition complex subunit 1 (hORC1); Subunit of m1; also called hORC1; hORC1 N-tag; source: S. cerevisiae YC658, co-overexpressed with hORC2-5; in lysate (co-purification) and purified as hORC1-5 (StrepXT, heparin, glycerol gradient); not shown: Twin Strep-tag, N-terminal, kept
T2 sequence (looked up): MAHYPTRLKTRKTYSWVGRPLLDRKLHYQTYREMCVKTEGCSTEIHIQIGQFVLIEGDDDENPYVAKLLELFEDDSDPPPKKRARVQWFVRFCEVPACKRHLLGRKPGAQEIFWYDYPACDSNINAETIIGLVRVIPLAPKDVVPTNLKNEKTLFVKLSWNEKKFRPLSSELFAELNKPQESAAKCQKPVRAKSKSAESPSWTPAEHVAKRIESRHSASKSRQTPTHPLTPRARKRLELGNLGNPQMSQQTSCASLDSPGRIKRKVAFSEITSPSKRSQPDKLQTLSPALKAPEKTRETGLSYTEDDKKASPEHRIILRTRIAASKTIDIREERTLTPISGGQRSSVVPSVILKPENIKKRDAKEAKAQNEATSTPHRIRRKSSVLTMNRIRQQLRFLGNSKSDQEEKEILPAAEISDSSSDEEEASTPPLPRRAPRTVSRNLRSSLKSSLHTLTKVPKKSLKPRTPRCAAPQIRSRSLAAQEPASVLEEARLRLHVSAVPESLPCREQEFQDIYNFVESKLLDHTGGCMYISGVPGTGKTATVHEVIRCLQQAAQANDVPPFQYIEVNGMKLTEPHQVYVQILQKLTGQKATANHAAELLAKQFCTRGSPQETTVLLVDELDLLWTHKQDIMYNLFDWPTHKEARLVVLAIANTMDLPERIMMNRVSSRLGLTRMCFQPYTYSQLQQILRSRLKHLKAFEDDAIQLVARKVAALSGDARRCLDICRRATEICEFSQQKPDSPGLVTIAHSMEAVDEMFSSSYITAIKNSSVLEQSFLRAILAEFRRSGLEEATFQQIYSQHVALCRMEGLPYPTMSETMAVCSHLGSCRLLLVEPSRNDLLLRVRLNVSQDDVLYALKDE

human MCM2 = target: T3, human MCM2 (human, UniProt P49736 1-904); assay: cryo-EM structure; hOCCM from a low-salt washed pre-RC reaction with ATPγS, eluted from the DNA beads with DNaseI; 6.09 Å; settings: both partners purified
T3 construct: human MCM2 (hMCM2); Subunit of m6; also called hMCM2; source: HEK293-F, co-expressed hMCM2-7; in lysate (co-purification) and purified as hMCM2-7 (Ni-NTA, StrepTrapXT); not shown: twin Strep, N-terminal, kept

human MCM6 = target: T4, human MCM6 (human, UniProt Q14566 1-821); assay: as above; settings: both partners purified
T4 construct: Subunit of m6; also called hMCM6; source: HEK293-F, co-expressed hMCM2-7; in lysate (co-purification) and purified as hMCM2-7 (Ni-NTA, StrepTrapXT)
T4 sequence (looked up): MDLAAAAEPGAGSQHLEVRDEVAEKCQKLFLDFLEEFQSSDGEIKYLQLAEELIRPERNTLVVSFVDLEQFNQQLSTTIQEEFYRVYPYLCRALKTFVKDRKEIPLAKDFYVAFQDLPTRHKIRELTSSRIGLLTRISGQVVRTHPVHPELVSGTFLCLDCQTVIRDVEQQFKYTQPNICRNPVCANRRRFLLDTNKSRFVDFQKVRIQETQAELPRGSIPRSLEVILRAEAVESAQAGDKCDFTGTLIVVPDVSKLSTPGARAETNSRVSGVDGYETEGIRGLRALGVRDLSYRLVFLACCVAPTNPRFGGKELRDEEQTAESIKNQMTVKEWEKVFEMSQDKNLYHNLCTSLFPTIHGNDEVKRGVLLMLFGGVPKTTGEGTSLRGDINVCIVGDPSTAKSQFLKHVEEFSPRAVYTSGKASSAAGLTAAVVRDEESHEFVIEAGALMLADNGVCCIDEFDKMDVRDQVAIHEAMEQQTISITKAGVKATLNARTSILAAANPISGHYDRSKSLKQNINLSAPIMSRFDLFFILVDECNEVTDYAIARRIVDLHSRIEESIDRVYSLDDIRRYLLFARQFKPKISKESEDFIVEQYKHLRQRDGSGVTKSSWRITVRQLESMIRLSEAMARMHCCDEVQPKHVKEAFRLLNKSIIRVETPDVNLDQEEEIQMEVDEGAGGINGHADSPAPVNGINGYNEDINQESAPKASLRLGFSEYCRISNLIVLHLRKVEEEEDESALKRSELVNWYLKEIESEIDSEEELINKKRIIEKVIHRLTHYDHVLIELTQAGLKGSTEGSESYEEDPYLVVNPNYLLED

T3 sequence (P49736 whole entry): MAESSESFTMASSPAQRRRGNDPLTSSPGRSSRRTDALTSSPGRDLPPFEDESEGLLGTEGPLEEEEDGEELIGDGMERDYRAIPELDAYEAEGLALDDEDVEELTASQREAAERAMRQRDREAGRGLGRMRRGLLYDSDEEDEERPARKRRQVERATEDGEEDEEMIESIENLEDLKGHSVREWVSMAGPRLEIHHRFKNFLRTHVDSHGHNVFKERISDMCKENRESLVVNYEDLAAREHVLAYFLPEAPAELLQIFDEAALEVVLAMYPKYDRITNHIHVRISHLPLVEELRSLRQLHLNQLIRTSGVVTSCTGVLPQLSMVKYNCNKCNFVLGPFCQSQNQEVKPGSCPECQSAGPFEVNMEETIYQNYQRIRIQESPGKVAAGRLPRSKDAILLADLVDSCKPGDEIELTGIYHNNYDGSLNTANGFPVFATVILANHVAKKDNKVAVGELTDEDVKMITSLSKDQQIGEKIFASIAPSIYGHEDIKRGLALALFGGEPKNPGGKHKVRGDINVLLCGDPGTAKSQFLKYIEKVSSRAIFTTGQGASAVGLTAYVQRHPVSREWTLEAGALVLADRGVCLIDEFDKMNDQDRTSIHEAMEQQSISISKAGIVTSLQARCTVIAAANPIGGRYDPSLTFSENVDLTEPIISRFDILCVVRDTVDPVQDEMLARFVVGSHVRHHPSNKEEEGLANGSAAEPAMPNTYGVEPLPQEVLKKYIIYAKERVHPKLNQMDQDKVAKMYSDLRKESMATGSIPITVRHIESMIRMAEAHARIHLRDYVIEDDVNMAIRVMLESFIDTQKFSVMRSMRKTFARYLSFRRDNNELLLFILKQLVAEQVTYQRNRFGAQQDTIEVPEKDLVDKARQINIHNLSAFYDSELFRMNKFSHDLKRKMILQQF

Binder	binding result (human MCM3)	binding result (human ORC1)	binding result (human MCM2)	binding result (human MCM6)
B1	binds	binds		
B2		binds	binds	
B3		binds		binds
B4		binds		binds
